IntAct's records for PubMed 20018686

B1: Serine/threonine-protein kinase BIK1 (Arabidopsis thaliana (Mouse-ear cress)), O48814 (parent)
chain: MGSCFSSRVKADIFHNGKSSDLYGLSLSSRKSSSTVAAAQKTEGEILSSTPVKSFTFNELKLATRNFRPDSVIGEGGFGCVFKGWLDESTLTPTKPGTGLVIAVKKLNQEGFQGHREWLTEINYLGQLSHPNLVKLIGYCLEDEHRLLVYEFMQKGSLENHLFRRGAYFKPLPWFLRVNVALDAAKGLAFLHSDPVKVIYRDIKASNILLDADYNAKLSDFGLARDGPMGDLSYVSTRVMGTYGYAAPEYMSSGHLNARSDVYSFGVLLLEILSGKRALDHNRPAKEENLVDWARPYLTSKRKVLLIVDNRLDTQYLPEEAVRMASVAVQCLSFEPKSRPTMDQVVRALQQLQDNLGKPSQTNPVKDTKKLGFKTGTTKSSEKRFTQKPFGRHLV
B2: Serine/threonine-protein kinase BIK1 (Arabidopsis thaliana (Mouse-ear cress)), O48814 (parent)
chain: B1 chain
partner: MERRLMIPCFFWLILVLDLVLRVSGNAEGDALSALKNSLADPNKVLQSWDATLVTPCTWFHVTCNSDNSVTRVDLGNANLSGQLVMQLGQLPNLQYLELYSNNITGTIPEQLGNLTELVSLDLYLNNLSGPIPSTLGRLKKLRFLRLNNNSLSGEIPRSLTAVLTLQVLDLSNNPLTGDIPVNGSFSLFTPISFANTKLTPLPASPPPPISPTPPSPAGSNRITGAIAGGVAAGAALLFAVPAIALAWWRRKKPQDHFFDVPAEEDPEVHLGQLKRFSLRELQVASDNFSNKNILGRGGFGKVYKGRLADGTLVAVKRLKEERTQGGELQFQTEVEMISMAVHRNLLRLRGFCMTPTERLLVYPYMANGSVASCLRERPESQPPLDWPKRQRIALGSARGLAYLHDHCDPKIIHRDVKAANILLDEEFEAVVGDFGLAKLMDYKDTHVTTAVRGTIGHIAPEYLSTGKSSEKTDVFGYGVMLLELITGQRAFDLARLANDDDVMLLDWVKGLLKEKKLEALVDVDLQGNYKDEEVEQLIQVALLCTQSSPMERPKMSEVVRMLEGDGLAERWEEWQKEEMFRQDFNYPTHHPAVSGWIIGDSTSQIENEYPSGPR

Variants of: B1
Details: with fls2_arath FLS2, Q9FL28
Sequence of fls2_arath FLS2, Q9FL28 (Q9FL28 whole entry): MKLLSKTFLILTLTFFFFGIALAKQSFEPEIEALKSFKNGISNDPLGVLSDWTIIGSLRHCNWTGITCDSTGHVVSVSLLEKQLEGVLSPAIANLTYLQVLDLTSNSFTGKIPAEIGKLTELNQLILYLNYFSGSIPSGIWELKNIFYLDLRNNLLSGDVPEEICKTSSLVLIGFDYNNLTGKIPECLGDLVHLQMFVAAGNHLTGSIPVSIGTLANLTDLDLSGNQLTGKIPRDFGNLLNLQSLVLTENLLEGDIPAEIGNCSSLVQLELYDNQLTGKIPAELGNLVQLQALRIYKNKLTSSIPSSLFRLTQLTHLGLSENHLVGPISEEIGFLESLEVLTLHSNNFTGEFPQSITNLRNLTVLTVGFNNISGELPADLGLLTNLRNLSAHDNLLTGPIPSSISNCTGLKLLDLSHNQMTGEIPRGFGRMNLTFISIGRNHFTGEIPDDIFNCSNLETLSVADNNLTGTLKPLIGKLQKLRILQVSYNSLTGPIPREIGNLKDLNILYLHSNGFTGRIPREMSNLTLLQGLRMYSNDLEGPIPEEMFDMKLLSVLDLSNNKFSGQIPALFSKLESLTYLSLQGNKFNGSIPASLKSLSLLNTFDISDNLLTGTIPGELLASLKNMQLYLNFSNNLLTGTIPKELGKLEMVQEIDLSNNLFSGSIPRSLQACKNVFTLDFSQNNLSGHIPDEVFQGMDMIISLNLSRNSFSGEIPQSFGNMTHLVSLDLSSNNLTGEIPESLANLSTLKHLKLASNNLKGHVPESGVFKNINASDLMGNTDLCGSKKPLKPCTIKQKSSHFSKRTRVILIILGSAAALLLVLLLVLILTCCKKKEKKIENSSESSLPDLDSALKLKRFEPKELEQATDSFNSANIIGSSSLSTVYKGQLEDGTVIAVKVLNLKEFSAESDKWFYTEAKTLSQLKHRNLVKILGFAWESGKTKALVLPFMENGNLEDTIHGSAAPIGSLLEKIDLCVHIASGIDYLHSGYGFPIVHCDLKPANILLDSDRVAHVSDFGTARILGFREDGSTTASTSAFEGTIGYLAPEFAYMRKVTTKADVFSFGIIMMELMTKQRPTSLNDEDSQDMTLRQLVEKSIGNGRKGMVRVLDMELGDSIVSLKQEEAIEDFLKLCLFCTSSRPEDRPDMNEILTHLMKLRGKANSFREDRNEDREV
With MGSCFSSRVKADIFHNGKSSDLYGLSLSSRKSSSTVAAAQKTEGEILSSTPVKSFTFNELKLATRNFRPDSVIGEGGFGCVFKGWLDESTLTPTKPGTGLVIAVKKLNQEGFQGHREWLTEINYLGQLSHPNLVKLIGYCLEDEHRLLVYEFMQKGSLENHLFRRGAYFKPLPWFLRVNVALDAAKGLAFLHSDPVKVIYRDIKASNILLDADYNAKLSDFGLARDGPMGDLSYVSARVMGTYGYAAPEYMSSGHLNARSDVYSFGVLLLEILSGKRALDHNRPAKEENLVDWARPYLTSKRKVLLIVDNRLDTQYLPEEAVRMASVAVQCLSFEPKSRPTMDQVVRALQQLQDNLGKPSQTNPVKDTKKLGFKTGTTKSSEKRFTQKPFGRHLV [T237A] the “effect of a mutation on the interaction” value was “disrupting interaction”.

Variants of: B2
Details: with bak1_arath BAK1, Q94F62
In the case of MGSCFSSRVKADIFHNGKSSDLYGLSLSSRKSSSTVAAAQKTEGEILSSTPVKSFTFNELKLATRNFRPDSVIGEGGFGCVFKGWLDESTLTPTKPGTGLVIAVKKLNQEGFQGHREWLTEINYLGQLSHPNLVKLIGYCLEDEHRLLVYEFMQKGSLENHLFRRGAYFKPLPWFLRVNVALDAAKGLAFLHSDPVKVIYRDIKASNILLDADYNAKLSDFGLARDGPMGDLSYVSARVMGTYGYAAPEYMSSGHLNARSDVYSFGVLLLEILSGKRALDHNRPAKEENLVDWARPYLTSKRKVLLIVDNRLDTQYLPEEAVRMASVAVQCLSFEPKSRPTMDQVVRALQQLQDNLGKPSQTNPVKDTKKLGFKTGTTKSSEKRFTQKPFGRHLV [T237A], the “effect of a mutation on the interaction” value is reported as “disrupting interaction”.
